Columns and labels:
[1] = biological target: mouse/human type 2 prolyl 4-hydroxylase tetramer (mouse; human) (UniProt P07237); experiment: cell-based or functional assay
[2] = biological target: human type 1 prolyl 4-hydroxylase tetramer (human) (UniProt P13674); experiment: inhibition of prolyl 4-hydroxylase activity (2-oxo[1-14C]glutarate decarboxylation), insect cell extract
Chain of human type 1 prolyl 4-hydroxylase tetramer (human) (P13674 18-534, chain 1 of 2): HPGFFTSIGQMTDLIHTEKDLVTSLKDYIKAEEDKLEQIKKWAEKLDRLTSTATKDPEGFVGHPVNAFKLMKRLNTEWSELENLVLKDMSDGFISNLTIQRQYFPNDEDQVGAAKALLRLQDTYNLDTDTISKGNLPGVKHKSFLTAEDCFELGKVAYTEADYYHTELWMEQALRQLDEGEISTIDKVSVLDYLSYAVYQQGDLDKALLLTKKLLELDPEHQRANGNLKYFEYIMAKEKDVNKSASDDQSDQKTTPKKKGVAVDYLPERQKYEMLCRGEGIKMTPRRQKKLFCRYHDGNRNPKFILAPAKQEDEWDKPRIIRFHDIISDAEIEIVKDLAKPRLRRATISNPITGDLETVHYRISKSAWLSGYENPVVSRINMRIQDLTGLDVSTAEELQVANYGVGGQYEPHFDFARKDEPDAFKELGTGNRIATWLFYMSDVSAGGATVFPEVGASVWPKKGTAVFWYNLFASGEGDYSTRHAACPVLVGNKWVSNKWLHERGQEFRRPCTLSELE
Chain of human type 1 prolyl 4-hydroxylase tetramer (human) (P07237 18-508, chain 2 of 2, further chain): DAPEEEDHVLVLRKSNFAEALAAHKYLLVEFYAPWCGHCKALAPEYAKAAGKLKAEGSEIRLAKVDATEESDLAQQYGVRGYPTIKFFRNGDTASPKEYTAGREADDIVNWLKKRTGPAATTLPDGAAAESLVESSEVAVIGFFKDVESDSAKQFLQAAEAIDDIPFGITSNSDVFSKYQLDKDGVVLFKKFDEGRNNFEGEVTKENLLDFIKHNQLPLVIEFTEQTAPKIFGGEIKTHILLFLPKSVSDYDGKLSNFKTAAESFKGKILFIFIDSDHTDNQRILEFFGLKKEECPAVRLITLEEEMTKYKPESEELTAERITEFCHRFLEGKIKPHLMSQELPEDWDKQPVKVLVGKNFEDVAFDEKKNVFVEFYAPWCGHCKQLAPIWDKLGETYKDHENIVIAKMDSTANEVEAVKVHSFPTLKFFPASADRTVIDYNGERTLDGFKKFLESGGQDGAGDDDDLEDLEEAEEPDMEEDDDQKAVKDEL

Chain of mouse/human type 2 prolyl 4-hydroxylase tetramer (mouse; human) (chain, as listed by the source, chain 1 of 2): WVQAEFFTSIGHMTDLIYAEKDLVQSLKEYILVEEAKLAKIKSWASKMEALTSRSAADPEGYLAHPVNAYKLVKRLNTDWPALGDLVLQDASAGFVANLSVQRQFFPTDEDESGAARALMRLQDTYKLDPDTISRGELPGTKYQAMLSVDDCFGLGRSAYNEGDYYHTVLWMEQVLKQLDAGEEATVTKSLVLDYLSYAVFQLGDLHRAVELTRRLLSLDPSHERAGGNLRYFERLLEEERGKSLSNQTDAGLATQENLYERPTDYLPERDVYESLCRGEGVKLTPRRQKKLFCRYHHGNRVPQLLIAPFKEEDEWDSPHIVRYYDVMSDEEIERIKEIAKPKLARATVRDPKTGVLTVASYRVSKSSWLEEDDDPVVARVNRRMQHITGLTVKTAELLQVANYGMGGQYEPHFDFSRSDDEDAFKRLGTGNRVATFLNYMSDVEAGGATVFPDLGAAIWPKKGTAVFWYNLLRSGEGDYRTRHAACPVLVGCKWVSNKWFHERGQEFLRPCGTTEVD
Chain of mouse/human type 2 prolyl 4-hydroxylase tetramer (mouse; human) (P07237 18-508, chain 2 of 2): as the sequence (P07237 18-508, chain 2 of 2, further chain) above

Row | IC50 (inhibition of prolyl 4-hydroxylase activity; printed in the Ki row) [1] [µM] | Ki [2] [µM] | Substance
1 | 30 | 0.02 | Poly(L-proline), Mr 44,000 (peptide)
2 | 300 | 0.5 | Poly(L-proline), Mr 7000 (peptide)
